What was measured:
SEC-MALS = biological target: the molecule itself; assay: SEC-MALS
G5_(845-1508)-D1019E-TAP = biological target: T1, G5_(845-1508)-D1019E-TAP (human, UniProt Q8TEQ6 845-1508, D1019E); assay: co-IP
T1 sequence (looked up): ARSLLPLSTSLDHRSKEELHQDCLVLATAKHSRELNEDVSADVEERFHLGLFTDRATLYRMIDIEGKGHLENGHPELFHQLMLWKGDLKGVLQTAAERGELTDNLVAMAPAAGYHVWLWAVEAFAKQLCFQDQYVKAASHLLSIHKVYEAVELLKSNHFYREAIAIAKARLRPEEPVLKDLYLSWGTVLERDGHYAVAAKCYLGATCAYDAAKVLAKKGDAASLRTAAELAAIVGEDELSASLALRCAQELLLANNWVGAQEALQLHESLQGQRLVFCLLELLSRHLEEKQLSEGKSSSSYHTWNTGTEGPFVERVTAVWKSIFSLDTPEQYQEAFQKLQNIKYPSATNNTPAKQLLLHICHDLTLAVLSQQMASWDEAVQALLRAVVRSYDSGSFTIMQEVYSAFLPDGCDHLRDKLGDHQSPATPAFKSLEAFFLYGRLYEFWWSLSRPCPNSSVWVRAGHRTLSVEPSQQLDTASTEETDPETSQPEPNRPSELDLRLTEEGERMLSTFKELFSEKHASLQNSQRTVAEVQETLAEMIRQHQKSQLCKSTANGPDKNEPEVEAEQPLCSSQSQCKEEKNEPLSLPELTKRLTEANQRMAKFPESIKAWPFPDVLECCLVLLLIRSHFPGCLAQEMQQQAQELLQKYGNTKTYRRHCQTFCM

G5_(845-1508)-R1016C-TAP = biological target: T2, G5_(845-1508)-R1016C-TAP (human, UniProt Q8TEQ6 845-1508, R1016C); assay: co-IP
T2 sequence (looked up): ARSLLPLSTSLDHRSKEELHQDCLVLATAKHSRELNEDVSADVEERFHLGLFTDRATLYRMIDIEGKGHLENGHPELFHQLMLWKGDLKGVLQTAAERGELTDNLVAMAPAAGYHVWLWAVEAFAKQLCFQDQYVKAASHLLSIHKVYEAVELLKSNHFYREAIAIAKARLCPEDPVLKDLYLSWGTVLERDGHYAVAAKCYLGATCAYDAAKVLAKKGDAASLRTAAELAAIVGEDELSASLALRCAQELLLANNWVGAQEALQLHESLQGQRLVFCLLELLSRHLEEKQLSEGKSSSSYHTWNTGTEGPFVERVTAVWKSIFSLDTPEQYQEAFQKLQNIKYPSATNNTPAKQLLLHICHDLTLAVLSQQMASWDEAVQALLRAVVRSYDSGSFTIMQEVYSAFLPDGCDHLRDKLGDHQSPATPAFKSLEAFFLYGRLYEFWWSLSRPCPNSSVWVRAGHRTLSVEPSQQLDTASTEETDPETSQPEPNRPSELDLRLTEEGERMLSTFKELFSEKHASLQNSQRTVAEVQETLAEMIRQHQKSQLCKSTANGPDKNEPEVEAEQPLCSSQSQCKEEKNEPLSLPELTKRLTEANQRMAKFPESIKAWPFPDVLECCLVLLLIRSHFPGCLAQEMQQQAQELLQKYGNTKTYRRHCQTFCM

[1] = biological target: T3, G5_(845-1508)-A951E-TAP (human), Q8TEQ6; assay: co-IP; conditions: remark: other sources report otherwise
T3 chain: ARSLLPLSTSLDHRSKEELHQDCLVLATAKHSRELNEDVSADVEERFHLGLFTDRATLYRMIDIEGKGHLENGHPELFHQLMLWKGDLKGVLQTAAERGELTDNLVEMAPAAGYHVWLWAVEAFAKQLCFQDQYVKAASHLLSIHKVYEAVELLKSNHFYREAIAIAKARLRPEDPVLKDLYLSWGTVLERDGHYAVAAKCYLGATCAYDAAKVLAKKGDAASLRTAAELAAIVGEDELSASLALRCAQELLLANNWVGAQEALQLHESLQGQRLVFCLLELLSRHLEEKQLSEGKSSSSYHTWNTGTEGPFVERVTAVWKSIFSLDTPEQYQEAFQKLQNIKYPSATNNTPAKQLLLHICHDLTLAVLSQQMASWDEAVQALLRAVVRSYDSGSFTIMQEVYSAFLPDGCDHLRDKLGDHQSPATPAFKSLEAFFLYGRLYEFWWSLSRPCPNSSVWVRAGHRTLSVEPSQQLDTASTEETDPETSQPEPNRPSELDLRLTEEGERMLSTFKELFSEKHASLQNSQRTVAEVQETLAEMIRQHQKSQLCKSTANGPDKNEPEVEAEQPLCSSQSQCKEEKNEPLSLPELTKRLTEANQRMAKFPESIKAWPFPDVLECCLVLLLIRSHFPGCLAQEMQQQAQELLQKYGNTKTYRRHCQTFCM

B1: Gemin5 TPR-like dimerization domain R1016C (domain or fragment, human, UniProt Q8TEQ6 845-1097, looked up)
chain: ARSLLPLSTSLDHRSKEELHQDCLVLATAKHSRELNEDVSADVEERFHLGLFTDRATLYRMIDIEGKGHLENGHPELFHQLMLWKGDLKGVLQTAAERGELTDNLVAMAPAAGYHVWLWAVEAFAKQLCFQDQYVKAASHLLSIHKVYEAVELLKSNHFYREAIAIAKARLCPEDPVLKDLYLSWGTVLERDGHYAVAAKCYLGATCAYDAAKVLAKKGDAASLRTAAELAAIVGEDELSASLALRCAQELLL
In the case of B1, the “stoichiometry N” value (SEC-MALS) is reported as 2.

B2: Gemin5 TPR-like dimerization domain D1019E (domain or fragment, human, UniProt Q8TEQ6 845-1097, looked up)
chain: ARSLLPLSTSLDHRSKEELHQDCLVLATAKHSRELNEDVSADVEERFHLGLFTDRATLYRMIDIEGKGHLENGHPELFHQLMLWKGDLKGVLQTAAERGELTDNLVAMAPAAGYHVWLWAVEAFAKQLCFQDQYVKAASHLLSIHKVYEAVELLKSNHFYREAIAIAKARLRPEEPVLKDLYLSWGTVLERDGHYAVAAKCYLGATCAYDAAKVLAKKGDAASLRTAAELAAIVGEDELSASLALRCAQELLL
B2 was tested, and the “stoichiometry N” value (SEC-MALS) was 2.

B3: Gemin5 endogenous protein (natural protein, human (endogenous in HEK293), UniProt Q8TEQ6 1-1508, looked up)
chain: MGQEPRTLPPSPNWYCARCSDAVPGGLFGFAARTSVFLVRVGPGAGESPGTPPFRVIGELVGHTERVSGFTFSHHPGQYNLCATSSDDGTVKIWDVETKTVVTEHALHQHTISTLHWSPRVKDLIVSGDEKGVVFCYWFNRNDSQHLFIEPRTIFCLTCSPHHEDLVAIGYKDGIVVIIDISKKGEVIHRLRGHDDEIHSIAWCPLPGEDCLSINQEETSEEAEITNGNAVAQAPVTKGCYLATGSKDQTIRIWSCSRGRGVMILKLPFLKRRGGGIDPTVKERLWLTLHWPSNQPTQLVSSCFGGELLQWDLTQSWRRKYTLFSASSEGQNHSRIVFNLCPLQTEDDKQLLLSTSMDRDVKCWDIATLECSWTLPSLGGFAYSLAFSSVDIGSLAIGVGDGMIRVWNTLSIKNNYDVKNFWQGVKSKVTALCWHPTKEGCLAFGTDDGKVGLYDTYSNKPPQISSTYHKKTVYTLAWGPPVPPMSLGGEGDRPSLALYSCGGEGIVLQHNPWKLSGEAFDINKLIRDTNSIKYKLPVHTEISWKADGKIMALGNEDGSIEIFQIPNLKLICTIQQHHKLVNTISWHHEHGSQPELSYLMASGSNNAVIYVHNLKTVIESSPESPVTITEPYRTLSGHTAKITSVAWSPHHDGRLVSASYDGTAQVWDALREEPLCNFRGHRGRLLCVAWSPLDPDCIYSGADDFCVHKWLTSMQDHSRPPQGKKSIELEKKRLSQPKAKPKKKKKPTLRTPVKLESIDGNEEESMKENSGPVENGVSDQEGEEQAREPELPCGLAPAVSREPVICTPVSSGFEKSKVTINNKVILLKKEPPKEKPETLIKKRKARSLLPLSTSLDHRSKEELHQDCLVLATAKHSRELNEDVSADVEERFHLGLFTDRATLYRMIDIEGKGHLENGHPELFHQLMLWKGDLKGVLQTAAERGELTDNLVAMAPAAGYHVWLWAVEAFAKQLCFQDQYVKAASHLLSIHKVYEAVELLKSNHFYREAIAIAKARLRPEDPVLKDLYLSWGTVLERDGHYAVAAKCYLGATCAYDAAKVLAKKGDAASLRTAAELAAIVGEDELSASLALRCAQELLLANNWVGAQEALQLHESLQGQRLVFCLLELLSRHLEEKQLSEGKSSSSYHTWNTGTEGPFVERVTAVWKSIFSLDTPEQYQEAFQKLQNIKYPSATNNTPAKQLLLHICHDLTLAVLSQQMASWDEAVQALLRAVVRSYDSGSFTIMQEVYSAFLPDGCDHLRDKLGDHQSPATPAFKSLEAFFLYGRLYEFWWSLSRPCPNSSVWVRAGHRTLSVEPSQQLDTASTEETDPETSQPEPNRPSELDLRLTEEGERMLSTFKELFSEKHASLQNSQRTVAEVQETLAEMIRQHQKSQLCKSTANGPDKNEPEVEAEQPLCSSQSQCKEEKNEPLSLPELTKRLTEANQRMAKFPESIKAWPFPDVLECCLVLLLIRSHFPGCLAQEMQQQAQELLQKYGNTKTYRRHCQTFCM
B3 was tested, and the “intensity of co-IP relative to the WT protein” value (G5_(845-1508)-D1019E-TAP) was 62 % relative to the WT protein, the “intensity of co-IP relative to the WT protein” value (G5_(845-1508)-R1016C-TAP) was 58 % relative to the WT protein and the fold by which the recruitment of Gemin5 by WT exceeds that by this mutant [1] was 10 fold.

Source: doi:10.1101/2022.01.25.477707 (bioRxiv, 2022)
